Results: article PMC4445065, “SOXE transcription factors form selective dimers on non-compact DNA motifs through multifaceted interactions between dimerization and high-mobility group domains”

What was measured:
SOX9-NHMG [1] = target: T1, SOX9-NHMG (UniProt Q04887 1-181); test: EMSA; highly cooperative homodimer; EMSA: 10 mM Tris-HCl pH 8.0, 0.1 mg/ml BSA, 50 uM ZnCl2, 100 mM KCl, 10% glycerol, 0.1% Igepal CA630, 2 mM beta-mercaptoethanol, 50 nM DNA, 4 h at 4 C; CD: 50 mM phosphate pH 8.0, 4 h at 4 C; settings: protein: recombinant; tags: His6 or His-MBP fusion, removed by TEV; chain copies: 2; label: Cy5 forward strand
SOX8-NHMG;SOX10-DHMG = SOX8-NHMG;SOX10-DHMG (;, UniProt Q04886;Q04888 1-175;61-180, |); test: EMSA; heterodimer band; EMSA: 10 mM Tris-HCl pH 8.0, 0.1 mg/ml BSA, 50 uM ZnCl2, 100 mM KCl, 10% glycerol, 0.1% Igepal CA630, 2 mM beta-mercaptoethanol, 50 nM DNA, 4 h at 4 C; CD: 50 mM phosphate pH 8.0, 4 h at 4 C; settings: protein: recombinant;recombinant, tags: His6 or His-MBP fusion, removed by TEV;His6 or His-MBP fusion, copies: 1;1, label: Cy5 forward strand
SOX9-DHMG;SOX8-NHMG = SOX9-DHMG;SOX8-NHMG (;, UniProt Q04887;Q04886 60-181;1-175, |); test: as above; settings: protein: recombinant;recombinant, tags: His6 or His-MBP fusion, removed by TEV;His6 or His-MBP fusion, copies: 1;1, label: Cy5 forward strand
SOX9-NHMG;SOX10-DHMG = SOX9-NHMG;SOX10-DHMG (;, UniProt Q04887;Q04888 1-181;61-180, |); test: as above; settings: protein: recombinant;recombinant, tags: His6 or His-MBP fusion, removed by TEV;His6 or His-MBP fusion, copies: 1;1, label: Cy5 forward strand
SOX8-NHMG;SOX10-HMG = SOX8-NHMG;SOX10-HMG (;, UniProt Q04886;Q04888 1-175;102-180, |); test: EMSA; mixed dimer with single DIM; EMSA: 10 mM Tris-HCl pH 8.0, 0.1 mg/ml BSA, 50 uM ZnCl2, 100 mM KCl, 10% glycerol, 0.1% Igepal CA630, 2 mM beta-mercaptoethanol, 50 nM DNA, 4 h at 4 C; CD: 50 mM phosphate pH 8.0, 4 h at 4 C; settings: protein: recombinant;recombinant; tags: His6 or His-MBP fusion, removed by TEV;N-terminal His6 (Methods, possibly only this construct); copies: 1;1; label: Cy5 forward strand
SOX8-NHMG;SOX9-HMG = SOX8-NHMG;SOX9-HMG (;, UniProt Q04886;Q04887 1-175;103-181, |); test: as above; settings: protein: recombinant;recombinant; tags: His6 or His-MBP fusion, removed by TEV;; copies: 1;1; label: Cy5 forward strand
SOX8-NHMG;SOX8-HMG = SOX8-NHMG;SOX8-HMG (;, UniProt Q04886;Q04886 1-175;97-175, |); test: as above; settings: protein: recombinant;recombinant; tags: His6 or His-MBP fusion, removed by TEV;; copies: 1;1; label: Cy5 forward strand
SOX10-DHMG;SOX10-HMG = SOX10-DHMG;SOX10-HMG (;, UniProt Q04888;Q04888 61-180;102-180, |); test: as above; settings: protein: recombinant;recombinant; tags: His6 or His-MBP fusion, removed by TEV;N-terminal His6 (Methods, possibly only this construct); copies: 1;1; label: Cy5 forward strand
SOX10-DHMG;SOX9-HMG = SOX10-DHMG;SOX9-HMG (;, UniProt Q04888;Q04887 61-180;103-181, |); test: as above; settings: protein: recombinant;recombinant; tags: His6 or His-MBP fusion, removed by TEV;; copies: 1;1; label: Cy5 forward strand
SOX10-DHMG;SOX8-HMG = SOX10-DHMG;SOX8-HMG (;, UniProt Q04888;Q04886 61-180;97-175, |); test: as above; settings: protein: recombinant;recombinant; tags: His6 or His-MBP fusion, removed by TEV;; copies: 1;1; label: Cy5 forward strand
SOX10-DHMG = SOX10-DHMG (UniProt Q04888 61-180); test: EMSA; homodimer, as cooperative as SOX9-NHMG; EMSA: 10 mM Tris-HCl pH 8.0, 0.1 mg/ml BSA, 50 uM ZnCl2, 100 mM KCl, 10% glycerol, 0.1% Igepal CA630, 2 mM beta-mercaptoethanol, 50 nM DNA, 4 h at 4 C; CD: 50 mM phosphate pH 8.0, 4 h at 4 C; settings: protein: recombinant; tags: His6 or His-MBP fusion, removed by TEV; chain copies: 2; label: Cy5 forward strand
SOX8-NHMG = SOX8-NHMG (UniProt Q04886 1-175); test: as above; settings: protein: recombinant; tags: His6 or His-MBP fusion, removed by TEV; chain copies: 2; label: Cy5 forward strand
SOX9-NHMG;SOX8-HMG = SOX9-NHMG;SOX8-HMG (;, UniProt Q04887;Q04886 1-181;97-175, |); test: EMSA; heterodimer more prominent than SOX9-NHMG homodimer; EMSA: 10 mM Tris-HCl pH 8.0, 0.1 mg/ml BSA, 50 uM ZnCl2, 100 mM KCl, 10% glycerol, 0.1% Igepal CA630, 2 mM beta-mercaptoethanol, 50 nM DNA, 4 h at 4 C; CD: 50 mM phosphate pH 8.0, 4 h at 4 C; settings: protein: recombinant;recombinant; tags: His6 or His-MBP fusion, removed by TEV;; copies: 1;1; label: Cy5 forward strand
SOX9-NHMG;SOX10-HMG = SOX9-NHMG;SOX10-HMG (;, UniProt Q04887;Q04888 1-181;102-180, |); test: as above; settings: protein: recombinant;recombinant; tags: His6 or His-MBP fusion, removed by TEV;N-terminal His6 (Methods, possibly only this construct); copies: 1;1; label: Cy5 forward strand
SOX9-NHMG;SOX9-HMG = SOX9-NHMG;SOX9-HMG (;, UniProt Q04887;Q04887 1-181;103-181, |); test: EMSA; mixed dimer more prominent than SOX9-NHMG homodimer; EMSA: 10 mM Tris-HCl pH 8.0, 0.1 mg/ml BSA, 50 uM ZnCl2, 100 mM KCl, 10% glycerol, 0.1% Igepal CA630, 2 mM beta-mercaptoethanol, 50 nM DNA, 4 h at 4 C; CD: 50 mM phosphate pH 8.0, 4 h at 4 C; settings: protein: recombinant;recombinant; tags: His6 or His-MBP fusion, removed by TEV;; copies: 1;1; label: Cy5 forward strand
SOX9-NHMG [2] = target: T1, SOX9-NHMG; test: EMSA; highly cooperative homodimer; cooperativity factor denoted infinite; EMSA: 10 mM Tris-HCl pH 8.0, 0.1 mg/ml BSA, 50 uM ZnCl2, 100 mM KCl, 10% glycerol, 0.1% Igepal CA630, 2 mM beta-mercaptoethanol, 50 nM DNA, 4 h at 4 C; CD: 50 mM phosphate pH 8.0, 4 h at 4 C; settings: protein: recombinant; tags: His6 or His-MBP fusion, removed by TEV; chain copies: 2; label: Cy5 forward strand
SOX9-NHMG [3] = target: T1, SOX9-NHMG; test: EMSA; homodimer, cooperativity factor ~100 (about 10-fold diminished); EMSA: 10 mM Tris-HCl pH 8.0, 0.1 mg/ml BSA, 50 uM ZnCl2, 100 mM KCl, 10% glycerol, 0.1% Igepal CA630, 2 mM beta-mercaptoethanol, 50 nM DNA, 4 h at 4 C; CD: 50 mM phosphate pH 8.0, 4 h at 4 C; settings: protein: recombinant; tags: His6 or His-MBP fusion, removed by TEV; chain copies: 2; label: Cy5 forward strand

Measured: binding result

T1 sequence (Q04887 1-181): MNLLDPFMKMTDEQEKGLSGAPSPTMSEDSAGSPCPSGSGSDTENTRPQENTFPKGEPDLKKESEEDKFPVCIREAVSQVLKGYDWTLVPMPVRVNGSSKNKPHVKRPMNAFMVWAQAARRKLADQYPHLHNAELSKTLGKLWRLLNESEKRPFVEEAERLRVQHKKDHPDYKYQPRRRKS
Chain of SOX9-NHMG;SOX9-HMG (Q04887 1-181, chain 1 of 2): as the sequence (Q04887 1-181) above
Chain of SOX9-NHMG;SOX9-HMG (Q04887 103-181, chain 2 of 2): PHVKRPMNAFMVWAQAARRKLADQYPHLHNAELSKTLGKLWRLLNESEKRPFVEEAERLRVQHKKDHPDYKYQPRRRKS
Chain of SOX9-NHMG;SOX8-HMG (Q04887 1-181, chain 1 of 2): as the sequence (Q04887 1-181) above
Chain of SOX9-NHMG;SOX8-HMG (Q04887 103-181 N147S, chain 2 of 2): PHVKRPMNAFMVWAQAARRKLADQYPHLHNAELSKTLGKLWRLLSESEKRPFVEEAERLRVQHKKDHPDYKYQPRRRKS
Chain of SOX9-NHMG;SOX10-DHMG (Q04887 1-181, chain 1 of 2): as the sequence (Q04887 1-181) above
Chain of SOX9-NHMG;SOX10-DHMG (Q04887 other isoform, or with tags, fused parts or gaps |, chain 2 of 2): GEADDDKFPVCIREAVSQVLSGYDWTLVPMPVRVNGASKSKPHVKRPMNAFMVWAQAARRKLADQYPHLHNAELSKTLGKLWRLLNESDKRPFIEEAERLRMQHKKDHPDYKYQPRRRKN
Chain of SOX9-NHMG;SOX10-HMG (Q04887 1-181, chain 1 of 2): as the sequence (Q04887 1-181) above
Chain of SOX9-NHMG;SOX10-HMG (Q04887 other isoform, or with tags, fused parts or gaps |, chain 2 of 2): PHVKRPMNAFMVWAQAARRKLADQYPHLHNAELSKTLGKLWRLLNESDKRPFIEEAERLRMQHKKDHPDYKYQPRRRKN
Chain of SOX10-DHMG;SOX9-HMG (Q04888 other isoform, or with tags, fused parts or gaps |, chain 2 of 2): as the sequence (Q04887 103-181, chain 2 of 2) above
Chain of SOX10-DHMG;SOX8-HMG (Q04888 other isoform, or with tags, fused parts or gaps |, chain 2 of 2): as the sequence (Q04887 103-181 N147S, chain 2 of 2) above
Chain of SOX8-NHMG;SOX8-HMG (Q04886 1-175, chain 1 of 2): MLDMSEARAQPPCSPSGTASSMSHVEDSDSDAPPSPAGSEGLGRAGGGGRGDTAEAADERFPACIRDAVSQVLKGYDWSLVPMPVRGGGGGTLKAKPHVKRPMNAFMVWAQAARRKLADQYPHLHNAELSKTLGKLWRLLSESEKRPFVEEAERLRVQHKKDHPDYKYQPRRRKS
Chain of SOX8-NHMG;SOX8-HMG (Q04886 97-175, chain 2 of 2): as the sequence (Q04887 103-181 N147S, chain 2 of 2) above
Chain of SOX8-NHMG;SOX10-HMG (Q04886 1-175, chain 1 of 2): as the sequence (Q04886 1-175, chain 1 of 2) above
Chain of SOX8-NHMG;SOX9-HMG (Q04886 1-175, chain 1 of 2): as above
Chain of SOX8-NHMG;SOX9-HMG (Q04886 97-175 S141N, chain 2 of 2): as the sequence (Q04887 103-181, chain 2 of 2) above
Chain of SOX8-NHMG;SOX10-DHMG (Q04886 1-175, chain 1 of 2): as the sequence (Q04886 1-175, chain 1 of 2) above
Chain of SOX8-NHMG (Q04886 1-175): as the sequence (Q04886 1-175, chain 1 of 2) above
Chain of SOX9-DHMG;SOX8-NHMG (Q04887 60-181, chain 1 of 2): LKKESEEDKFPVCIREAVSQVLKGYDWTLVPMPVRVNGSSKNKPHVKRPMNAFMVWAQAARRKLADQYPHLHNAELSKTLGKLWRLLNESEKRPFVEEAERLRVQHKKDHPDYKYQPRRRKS
Chain of SOX9-DHMG;SOX8-NHMG (Q04886 1-175, chain 2 of 2): as the sequence (Q04886 1-175, chain 1 of 2) above

B1: 3 bp spacer SOX dimer probe (dsDNA)
DNA 1: CGCCGAAAACAAAGGACCTTTGTTTTGCCG
DNA 2: CGGCAAAACAAAGGTCCTTTGTTTTCGGCG
binds: SOX9-NHMG [1]

B2: 4 bp spacer SOX dimer probe (dsDNA)
DNA 1: GCCGAAAACAAAGGAACCTTTGTTTTGCCG
DNA 2: CGGCAAAACAAAGGTTCCTTTGTTTTCGGC
not listed: SOX9-NHMG [1] | SOX9-NHMG [3]
binds: all other assays above

B3: 5 bp spacer SOX dimer probe (dsDNA)
DNA 1: GCCGAAAACAAAGGATACCTTTGTTTTGCC
DNA 2: GGCAAAACAAAGGTATCCTTTGTTTTCGGC
binds: SOX9-NHMG [2]

B4: 0 bp spacer SOX dimer probe (dsDNA)
DNA 1: CCGCCGTAACAATGCATTGTTGCCGCC
DNA 2: GGCGGCAACAATGCATTGTTACGGCGG
binds: SOX9-NHMG [3]

B5: 1 bp spacer SOX dimer probe (dsDNA)
DNA 1: CCGCCGAACAATGTCATTGTTGCCGCC
DNA 2: GGCGGCAACAATGACATTGTTCGGCGG
binds: SOX9-NHMG [3]

B6: 2 bp spacer SOX dimer probe (dsDNA)
DNA 1: CGCCGAAAACAAAGGCCTTTGTTTTGCCGC
DNA 2: GCGGCAAAACAAAGGCCTTTGTTTTCGGCG
binds: SOX9-NHMG [3]

B7: 6 bp spacer SOX dimer probe (dsDNA)
DNA 1: CCGAAAACAAAGGATTACCTTTGTTTTGCC
DNA 2: GGCAAAACAAAGGTAATCCTTTGTTTTCGG
binds: SOX9-NHMG [3]
